Assay [1] concerns the target T1, murine NKG2D overexpressed on EL4 cells (EL4-mNKG2D) (mouse, UniProt O54709 1-232).
T1 construct: whole, on cells; also called EL4-mNKG2D cells
T1 sequence (looked up): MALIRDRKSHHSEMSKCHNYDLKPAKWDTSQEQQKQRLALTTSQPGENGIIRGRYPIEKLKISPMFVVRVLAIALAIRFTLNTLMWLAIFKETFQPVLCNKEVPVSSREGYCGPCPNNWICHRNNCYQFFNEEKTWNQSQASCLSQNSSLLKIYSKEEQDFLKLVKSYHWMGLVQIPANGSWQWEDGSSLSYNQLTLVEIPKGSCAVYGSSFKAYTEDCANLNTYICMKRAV
Description: flow cytometry, 60 ug/mL with four-fold dilutions, EL4-mNKG2D cells, goat anti-mouse PE.

Assay [2] concerns the target T2, Tyrp-1 on B16F10 melanoma cells (UniProt P07147 25-537, limits assumed).
T2 construct: whole, on cells; B16F10 is a mouse melanoma line; also called Tyrp-1-positive B16F10 melanoma cells
Kind of assay: flow cytometry, 60 ug/mL with four-fold dilutions, B16F10 tumor cells, goat anti-mouse PE. (In general: A flow cytometer gives signals particle by particle.)

The target in assay [3] is T3, CD33 expressed on MV4-11 human AML cells (human, UniProt P20138 18-364).
T3 construct: whole, on cells; also called cell-expressed CD33
T3 sequence (P20138 18-364): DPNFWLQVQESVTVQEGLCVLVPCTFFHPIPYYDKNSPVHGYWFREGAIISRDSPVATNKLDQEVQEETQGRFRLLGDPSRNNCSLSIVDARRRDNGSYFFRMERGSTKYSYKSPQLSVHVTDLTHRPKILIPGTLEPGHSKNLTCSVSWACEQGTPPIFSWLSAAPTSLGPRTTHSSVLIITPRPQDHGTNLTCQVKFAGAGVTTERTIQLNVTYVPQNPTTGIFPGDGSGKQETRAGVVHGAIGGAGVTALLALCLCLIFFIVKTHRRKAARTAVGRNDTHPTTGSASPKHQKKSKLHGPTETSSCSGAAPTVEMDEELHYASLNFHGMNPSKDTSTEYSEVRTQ
Description: flow cytometry on MV4-11 cells.

Assay [4] concerns the target T3, CD33 expressed on MV4-11 human AML cells. Description: flow cytometry on MV4-11 cells, MFI fold over background.

B1: mcFAE-C26.99 TriNKET (bispecific antibody, mouse IgG2c)
heavy 1: QVQLQQWGAGLLKPSETLSLTCAVYGGSFSGYYWSWIRQPPGKGLEWIGEIDHSGSTNYNPSLKSRVTISVDTSKNQFSLKLSSVTAADTAVYYCARARGPWSFDPWGQGTLVTVSSAKTTAPSVYPLAPVCGGTTGSSVTLGCLVKGYFPEPVTLTWNSGSLSSGVHTFPALLQSGLYTLSSSVTVTSNTWPSQTITCNVAHPASSTKVDKKIEPRVPITQNPCPPLKECPPCAAPDLLGGPSVFIFPPKIKDVLMISLSPMVTCVVVDVSEDDPDVQISWFVNNVEVHTAQTQTHREDYNSTLRVVSALPIQHQDWMSGKEFKCKVNNRALPSPIEKTISKPRGPVRAPQVYVLPPPAEEMTKKEFSLTCMIKGFLPAEIAVDWTSNGRTEQNYKNTATVLDSDGSYFMYSRLRVQKSTWERGSLFACSVVHEGLHNHLTTKTISRSLGK
light 1: DIQMTQSPSTLSASVGDRVTITCRASQSISSWLAWYQQKPGKAPKLLIYKASSLESGVPSRFSGSGSGTEFTLTISSLQPDDFATYYCQQYGSFPITFGGGTKVEIKRADAAPTVSIFPPSSEQLTSGGASVVCFLNNFYPKDINVKWKIDGSERQNGVLNSWTDQDSKDSTYSMSSTLTLTKDEYERHNSYTCEATHKTSTSPIVKSFNRNEC
heavy 2: EVQLQQSGAELVRPGALVKLSCKTSGFNIKDYFLHWVRQRPDQGLEWIGWINPDNGNTVYDPKFQGTASLTADTSSNTVYLQLSGLTSEDTAVYFCTRRDYTYEKAALDYWGQGASVIVSSAKTTAPSVYPLAPVCGGTTGSSVTLGCLVKGYFPEPVTLTWNSGSLSSGVHTFPALLQSGLYTLSSSVTVTSNTWPSQTITCNVAHPASSTKVDKKIEPRVPITQNPCPPLKECPPCAAPDLLGGPSVFIFPPKIKDVLMISLSPMVTCVVVDVSEDDPDVQISWFVNNVEVHTAQTQTHREDYNSTLRVVSALPIQHQDWMSGKEFKCKVNNRALPSPIEKTISKPRGPVRAPQVYVLPPPAEEMTKKEFSLTCMITGFLPAEIAVDWTSNGRTEQNYKNTATVLDSDGSYLMYSKLTVQKSTWERGSLFACSVVHEGLHNHLTTKTISRSLGK
light 2: DIQMSQSPASLSASVGETVTITCRASGNIYNYLAWYQQKQGKSPHLLVYDAKTLADGVPSRFSGSGSGTQYSLKISSLQTEDSGNYYCQHFWSLPFTFGSGTKLEIKRADAAPTVSIFPPSSEQLTSGGASVVCFLNNFYPKDINVKWKIDGSERQNGVLNSWTDQDSKDSTYSMSSTLTLTKDEYERHNSYTCEATHKTSTSPIVKSFNRNEC
notes: Heterodimer of mC26 and TA99 with mouse IgG2c as the Fc; also called murine cFAE-C26.99 TriNKET; TA99 TriNKET
With B1, the binding result in assay [1] and in assay [2] was “binds” in each case.

B2: CD33-TriNKET-C26 (ADI-28226 and a CD33-binding domain) (bispecific antibody, V domains shown)
VH 1: QVQLQQWGAGLLKPSETLSLTCAVYGGSFSGYYWSWIRQPPGKGLEWIGEIDHSGSTNYNPSLKSRVTISVDTSKNQFSLKLSSVTAADTAVYYCARARGPWSFDPWGQGTLVTVSS
VL 1: DIQMTQSPSTLSASVGDRVTITCRASQSISSWLAWYQQKPGKAPKLLIYKASSLESGVPSRFSGSGSGTEFTLTISSLQPDDFATYYCQQYGSFPITFGGGTKVEIK
VH 2: QVQLVQSGAEVKKPGASVKVSCKASGYTFTDYVVHWVRQAPGQGLEWMGYINPYNDGTKYNEKFKGRVTMTRDTSISTAYMELSRLRSDDTAVYYCARDYRYEVYGMDYWGQGTLVTVSS
VL 2: DIVLTQSPASLAVSPGQRATITCTASSSVNYIHWYQQKPGQPPKLLIYDTSKVASGVPARFSGSGSGTDFTLTINPVEANDTANYYCQQWRSYPLTFGQGTKLEIK
notes: also called C26-TriNKET-CD33
Regarding B2, in assay [3], the binding result is listed as “binds”.

B3: parental anti-CD33 monoclonal antibody (antibody, V domains shown)
VH: QVQLVQSGAEVKKPGASVKVSCKASGYTFTDYVVHWVRQAPGQGLEWMGYINPYNDGTKYNEKFKGRVTMTRDTSISTAYMELSRLRSDDTAVYYCARDYRYEVYGMDYWGQGTLVTVSS
VL: DIVLTQSPASLAVSPGQRATITCTASSSVNYIHWYQQKPGQPPKLLIYDTSKVASGVPARFSGSGSGTDFTLTINPVEANDTANYYCQQWRSYPLTFGQGTKLEIK
notes: also called parental monoclonal anti-CD33 antibody; parental anti-CD33 antibody
With B3, the binding result in assay [4] is “binds”.

The record behind these values is patent US20240166753A1 (DRAGONFLY THERAPEUTICS, published 2024).
